# Data from IntAct's records for PubMed 24751834.
# B1: Type VI secretion system spike protein VgrG3 (Vibrio cholerae), Q9KN42 (parent)
# chain: MARLQFQLKVDGLEDESLVVRGFEGQESLSDSVWRCEPCYGFRYQVDLASALSNLTAEQFVDQTAHLTILRDGQVVQQINGIVRQLSKGDTGHRHTFYSLTLVPALERLSLRSNSRIFQQQSVPEIISILLQEMGIEDYAFALKRECAQREFCVQYRETDLQFLHRIAAEEGLVYSHLHEAQKHTLLFTDSSDSQPKLAKPVPYNALAGGEINLPYVVDLQFKTTAQVSHTELKDYSFKKPAYGFTQRTQGKDIAYQQPNYEHFDAPGRYKDDANGKAFSQIRLEYLRRDALLADAKSDEPLLLAGVRFDLQDHLDHAMNRDWLVVQANHQGTQPQALQEEGGSGATTYSNQLKLIPAHITWRARPCAKPQVDGPMIATVVGPQGEEIYCDNFGRVKVHFPWDRYSSSNEKSSCWVRVAQEWAGSQYGSMAIPRVGHEVIVSFLNGDPDQPIITGRTYHATNTAPYALPDHKTKTVLRTETHQGQGYNELSFEDQAGSEQILLHAQKDWDALIEHDHTEVIRHDQHLTVDNDRFTRIQRNQHLTVEGEVRSKIALDSSHEVGASLQHKVGQRIAVEAGKEISLKSGAKIVVEAGAELTLKAGGSFVKVDAGGVHLVGPAINLNAGGSAGSGSAYGGQLAAAPRMLAQAKPVAELVQPDIAASMQSGAARVIDVASLPTMMPSSANNTANDEPVAEEKTPERILKSDLLKPSDELEKLAKRQASAYRQGNHSDEVKLLQEALIKLGFDLGKAGADGDFGSKTKTAIEQFQKSYQPSHQTHPSYSIGAVDGIVGKGTLLALDEALMDGWVYENNIYQIWPLGKTSEKYESAGRGPGVISTGNGDYGGASYGCYQMSSNLGVVQKYIQSSKFKEFFSGLNPATKEFNVVWQDIASRYPQEFREEQHQFIKRTHYDIQIGHLRGKGLLFEHNRAAVHDLIWSTSVQFGGRTNLIFNALNGQNMESMTDKDIIILVQDYKLVNTERLFKSSPSWWSDLKKRAVSEKKALLELEIDGLEVDIK
# partner: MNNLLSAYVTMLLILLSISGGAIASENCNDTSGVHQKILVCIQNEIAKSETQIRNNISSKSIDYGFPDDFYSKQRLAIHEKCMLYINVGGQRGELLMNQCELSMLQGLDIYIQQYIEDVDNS
# Variants of: B1
# Conditions: with tsiv3_vibch tsiV3, Q9KN41
row,Variant,effect of a mutation on the interaction
1,Q942A,decreasing interaction

# Variants of: B1
# Conditions: with tsiv3_vibch tsiV3, Q9KN41
# Remark: another data set of the same source
row,Variant,effect of a mutation on the interaction
1,L982A,decreasing interaction

# Variants of: B1
# Conditions: with tsiv3_vibch tsiV3, Q9KN41
# Remark: another data set of the same source
row,Variant,effect of a mutation on the interaction
1,Y826A,decreasing interaction

# Variants of: B1
# Conditions: with tsiv3_vibch tsiV3, Q9KN41
# Remark: another data set of the same source
row,Variant,effect of a mutation on the interaction
1,R996A,decreasing interaction

# Variants of: B1
# Conditions: with tsiv3_vibch tsiV3, Q9KN41
# Remark: another data set of the same source
row,Variant,effect of a mutation on the interaction
1,V941A,decreasing interaction

# Variants of: B1
# Conditions: with tsiv3_vibch tsiV3, Q9KN41
# Remark: another data set of the same source
row,Variant,effect of a mutation on the interaction
1,D842A,decreasing interaction
